From US7183387 (Genentech, dated 2007) come the findings set out here.

The target of assay [1] is T1, human FcγRIIIA-F158 α subunit extracellular domain-6His-GST fusion (human, UniProt P08637 17-208).
T1 construct: also called FcγRIIIA-Phe158; not shown: glutathione S-transferase (GST)
Briefly: ELISA, IgG:IgE hexamers on receptor-GST. On the technique in general: An ELISA detects its analyte on a solid surface through an enzyme-linked reagent.

The target in assay [2] is T2, human FcγRIIB α subunit extracellular domain-6His-GST fusion (human, UniProt P31994 43-217).
T2 construct: not shown: glutathione S-transferase (GST)
T2 sequence: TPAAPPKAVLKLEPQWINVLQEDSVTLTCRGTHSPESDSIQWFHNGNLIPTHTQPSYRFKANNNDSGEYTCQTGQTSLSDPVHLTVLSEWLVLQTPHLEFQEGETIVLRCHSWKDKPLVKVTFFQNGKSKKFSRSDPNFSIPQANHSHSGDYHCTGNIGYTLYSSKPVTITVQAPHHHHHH
Briefly: ELISA, IgG:IgE hexamers on receptor-GST.

Assay [3] deals with T3, human FcγRIIA-R131 α subunit extracellular domain-6His-GST fusion (human, UniProt P12318 34-217).
T3 construct: also called FcγRIIA-Arg131; not shown: glutathione S-transferase (GST)
T3 sequence: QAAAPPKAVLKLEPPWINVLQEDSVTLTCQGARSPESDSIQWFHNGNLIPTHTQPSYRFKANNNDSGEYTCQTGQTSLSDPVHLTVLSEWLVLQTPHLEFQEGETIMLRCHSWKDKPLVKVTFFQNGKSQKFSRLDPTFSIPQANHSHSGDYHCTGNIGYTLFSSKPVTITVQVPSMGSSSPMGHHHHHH
Briefly: ELISA, IgG:IgE hexamers on receptor-GST.

Assay [4] has as its target T4, human FcγRIIIA-V158 α subunit extracellular domain-His6-GST fusion (human, UniProt P08637 17-208).
T4 construct: ECD-6His-GST fusion made in 293 cells; also called FcγRIIIA-Val158; not shown: glutathione S transferase (GST)
Put plainly: ELISA, IgG monomer, receptor coated.

Assay [5] addresses T4, human FcγRIIIA-V158 α subunit …. Put plainly: ELISA, IgG complex, receptor coated.
Assay [6] concerns the target T5, human FcγRIIIA-F158 α subunit extracellular domain-His6-GST fusion (human, UniProt P08637 17-208).
T5 construct: ECD-6His-GST fusion made in 293 cells; also called FcγRIIIA-Phe158; not shown: glutathione S transferase (GST)
Briefly: ELISA, IgG complex, receptor coated.

For assay [7], the target named is T6, human FcγRIIA-R131 α subunit extracellular domain-His6-GST fusion (human, UniProt P12318 34-217).
T6 construct: ECD-6His-GST fusion made in 293 cells; also called FcγRIIA-Arg131; not shown: glutathione S transferase (GST)
T6 sequence: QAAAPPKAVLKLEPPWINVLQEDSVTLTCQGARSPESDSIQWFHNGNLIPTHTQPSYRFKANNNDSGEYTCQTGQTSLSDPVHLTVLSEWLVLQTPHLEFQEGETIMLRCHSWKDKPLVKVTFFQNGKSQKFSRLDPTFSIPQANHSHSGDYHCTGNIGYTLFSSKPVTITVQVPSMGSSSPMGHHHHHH
Put plainly: ELISA, IgG complex, receptor coated.

T4 sequence (P08637 other isoform, or with tags, fused parts or gaps, form in doubt): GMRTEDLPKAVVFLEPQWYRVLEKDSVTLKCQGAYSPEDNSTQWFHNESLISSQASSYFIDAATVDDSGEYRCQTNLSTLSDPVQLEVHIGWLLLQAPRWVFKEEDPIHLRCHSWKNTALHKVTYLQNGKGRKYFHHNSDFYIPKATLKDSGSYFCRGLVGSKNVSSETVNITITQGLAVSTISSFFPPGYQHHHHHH
T1 sequence (P08637 other isoform, or with tags, fused parts or gaps, form in doubt): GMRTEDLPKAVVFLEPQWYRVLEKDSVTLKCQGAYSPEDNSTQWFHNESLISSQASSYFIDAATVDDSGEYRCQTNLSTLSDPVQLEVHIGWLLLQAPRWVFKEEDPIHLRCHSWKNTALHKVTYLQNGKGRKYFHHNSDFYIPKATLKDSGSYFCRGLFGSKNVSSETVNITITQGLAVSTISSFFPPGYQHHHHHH

B1: E27 IgG1 variant E333(352)A/K334(353)A (antibody)
heavy: not shown
light: DIQLTQSPSSLSASVGDRVTITCRASKPVDGEGDSYLNWYQQKPGKAPKLLIYAASYLESGVPSRFSGSGSGTDFTLTISSLQPEDFATYYCQQSHEDPYTFGQGTKVEIKRTVAAPSVFIFPPSDEQLKSGTASVVCLLNNFYPREAKVQWKVDNALQSGNSQESVTEQDSKDSTYSLSSTLTLSKADYEKHKVYACEVTHQGLSSPVTKSFNRGEC
Consider B1, for which the “ratio to native IgG1” value was 1.3 in assay [1], 0.63 in assay [2] and 0.72 in assay [3].

B2: anti-IgE E27 IgG1 variant T256(269)A (antibody)
heavy: not shown
light: DIQLTQSPSSLSASVGDRVTITCRASKPVDGEGDSYLNWYQQKPGKAPKLLIYAASYLESGVPSRFSGSGSGTDFTLTISSLQPEDFATYYCQQSHEDPYTFGQGTKVEIKRTVAAPSVFIFPPSDEQLKSGTASVVCLLNNFYPREAKVQWKVDNALQSGNSQESVTEQDSKDSTYSLSSTLTLSKADYEKHKVYACEVTHQGLSSPVTKSFNRGEC
notes: Fc variant of E27; also called IG2 11; Thr256Ala
For B2, the “ratio of binding, variant/native IgG1 (mean)” value in assay [4] amounted to 1.2 ratio; in assay [5], 0.97 ratio; in assay [6], 1.32 ratio; in assay [7], 1.41 ratio.

B3: anti-IgE E27 IgG1 variant S298(317)T (antibody)
heavy: not shown
light: DIQLTQSPSSLSASVGDRVTITCRASKPVDGEGDSYLNWYQQKPGKAPKLLIYAASYLESGVPSRFSGSGSGTDFTLTISSLQPEDFATYYCQQSHEDPYTFGQGTKVEIKRTVAAPSVFIFPPSDEQLKSGTASVVCLLNNFYPREAKVQWKVDNALQSGNSQESVTEQDSKDSTYSLSSTLTLSKADYEKHKVYACEVTHQGLSSPVTKSFNRGEC
notes: Fc variant of E27; also called IG2 71; Ser298Thr
Turning to B3, the “ratio of binding, variant/native IgG1 (mean)” value turned out to be 0.75 ratio in assay [4], 0.96 ratio in assay [5], 0.89 ratio in assay [6] and 0.41 ratio in assay [7].

B4: E27 IgG1 variant S267(280)A/E258(271)A (antibody)
heavy: not shown
light: DIQLTQSPSSLSASVGDRVTITCRASKPVDGEGDSYLNWYQQKPGKAPKLLIYAASYLESGVPSRFSGSGSGTDFTLTISSLQPEDFATYYCQQSHEDPYTFGQGTKVEIKRTVAAPSVFIFPPSDEQLKSGTASVVCLLNNFYPREAKVQWKVDNALQSGNSQESVTEQDSKDSTYSLSSTLTLSKADYEKHKVYACEVTHQGLSSPVTKSFNRGEC
Turning to B4, the “ratio to native IgG1” value in assay [1] was determined as 1.04; in assay [2] it was 2.01; in assay [3] it was 1.62.

B5: E27 IgG1 variant S267(280)A/E258(271)A/D280(295)A/R255(268)A (antibody)
heavy: EVQLVESGGGLVQPGGSLRLSCAVSGYSITSGYSWNWIRQAPGKGLEWVASIKYSGETKYNPSVKGRITISRDDSKNTFYLQMNSLRAEDTAVYYCARGSHYFGHWHFAVWGQGTLVTVSSASTKGPSVFPLAPSSKSTSGGTAALGCLVKDYFPEPVTVSWNSGALTSGVHTFPAVLQSSGLYSLSSVVTVPSSSLGTQTYICNVNHKPSNTKVDKKVEPKSCDKTHTCPPCPAPELLGGPSVFLFPPKPKDTLMISATPAVTCVVVDVAHEDPEVKFNWYVAGVEVHNAKTKPREEQYNSTYRVVSVLTVLHQDWLNGKEYKCKVSNKALPAPIEKTISKAKGQPREPQVYTLPPSREEMTKNQVSLTCLVKGFYPSDIAVEWESNGQPENNYKTTPPVLDSDGSFFLYSKLTVDKSRWQQGNVFSCSVMHEALHNHYTQKSLSLSPGK
light: DIQLTQSPSSLSASVGDRVTITCRASKPVDGEGDSYLNWYQQKPGKAPKLLIYAASYLESGVPSRFSGSGSGTDFTLTISSLQPEDFATYYCQQSHEDPYTFGQGTKVEIKRTVAAPSVFIFPPSDEQLKSGTASVVCLLNNFYPREAKVQWKVDNALQSGNSQESVTEQDSKDSTYSLSSTLTLSKADYEKHKVYACEVTHQGLSSPVTKSFNRGEC
notes: also called IG2 264
As to B5, the “ratio to native IgG1” value in assay [1] was determined as 0.89; in assay [2], 2.03; in assay [3], 1.48.

B6: anti-IgE E27 IgG1 variant T256(269)N (antibody)
heavy: not shown
light: DIQLTQSPSSLSASVGDRVTITCRASKPVDGEGDSYLNWYQQKPGKAPKLLIYAASYLESGVPSRFSGSGSGTDFTLTISSLQPEDFATYYCQQSHEDPYTFGQGTKVEIKRTVAAPSVFIFPPSDEQLKSGTASVVCLLNNFYPREAKVQWKVDNALQSGNSQESVTEQDSKDSTYSLSSTLTLSKADYEKHKVYACEVTHQGLSSPVTKSFNRGEC
notes: Fc variant of E27
On to B6, for which the “ratio of binding, variant/native IgG1 (mean)” value in assay [4] is 0.88 ratio; in assay [5], 0.95 ratio; in assay [6], 1.13 ratio; in assay [7] it was 1.03 ratio.

B7: E27 IgG1 variant S267(280)A/D280(295)A (antibody)
heavy: not shown
light: DIQLTQSPSSLSASVGDRVTITCRASKPVDGEGDSYLNWYQQKPGKAPKLLIYAASYLESGVPSRFSGSGSGTDFTLTISSLQPEDFATYYCQQSHEDPYTFGQGTKVEIKRTVAAPSVFIFPPSDEQLKSGTASVVCLLNNFYPREAKVQWKVDNALQSGNSQESVTEQDSKDSTYSLSSTLTLSKADYEKHKVYACEVTHQGLSSPVTKSFNRGEC
notes: also called IG2 248
Consider B7, for which the “ratio to native IgG1” value in assay [1] was determined as 1.13; in assay [2], 1.96; in assay [3] it was 1.54.

B8: anti-IgE E27 IgG1 variant S298(317)L (antibody)
heavy: not shown
light: DIQLTQSPSSLSASVGDRVTITCRASKPVDGEGDSYLNWYQQKPGKAPKLLIYAASYLESGVPSRFSGSGSGTDFTLTISSLQPEDFATYYCQQSHEDPYTFGQGTKVEIKRTVAAPSVFIFPPSDEQLKSGTASVVCLLNNFYPREAKVQWKVDNALQSGNSQESVTEQDSKDSTYSLSSTLTLSKADYEKHKVYACEVTHQGLSSPVTKSFNRGEC
notes: Fc variant of E27
On to B8, for which the “ratio of binding, variant/native IgG1 (mean)” value in assay [4] turned out to be 0.67 ratio; in assay [5], 0.83 ratio; in assay [6], 0.34 ratio; in assay [7], 1.14 ratio.

B9: E27 IgG1 variant S267(280)A/E272(285)A (antibody)
heavy: not shown
light: DIQLTQSPSSLSASVGDRVTITCRASKPVDGEGDSYLNWYQQKPGKAPKLLIYAASYLESGVPSRFSGSGSGTDFTLTISSLQPEDFATYYCQQSHEDPYTFGQGTKVEIKRTVAAPSVFIFPPSDEQLKSGTASVVCLLNNFYPREAKVQWKVDNALQSGNSQESVTEQDSKDSTYSLSSTLTLSKADYEKHKVYACEVTHQGLSSPVTKSFNRGEC
notes: also called IG2 250
In the case of B9, the results for the “ratio to native IgG1” value in assay [1], in assay [2] and in assay [3] were 0.95, 1.82 and 1.51, respectively.

B10: anti-IgE E27 IgG1 variant S298(317)N (antibody)
heavy: not shown
light: DIQLTQSPSSLSASVGDRVTITCRASKPVDGEGDSYLNWYQQKPGKAPKLLIYAASYLESGVPSRFSGSGSGTDFTLTISSLQPEDFATYYCQQSHEDPYTFGQGTKVEIKRTVAAPSVFIFPPSDEQLKSGTASVVCLLNNFYPREAKVQWKVDNALQSGNSQESVTEQDSKDSTYSLSSTLTLSKADYEKHKVYACEVTHQGLSSPVTKSFNRGEC
notes: Fc variant of E27; also called IG2 72; Ser298Asn
Take B10: the “ratio of binding, variant/native IgG1 (mean)” value in assay [4] came out at 0.17 ratio; in assay [5], 0.66 ratio; in assay [6] it was 0.06 ratio; in assay [7], 0.08 ratio.

B11: E27 IgG1 variant S267(280)A/E293(310)A (antibody)
heavy: not shown
light: DIQLTQSPSSLSASVGDRVTITCRASKPVDGEGDSYLNWYQQKPGKAPKLLIYAASYLESGVPSRFSGSGSGTDFTLTISSLQPEDFATYYCQQSHEDPYTFGQGTKVEIKRTVAAPSVFIFPPSDEQLKSGTASVVCLLNNFYPREAKVQWKVDNALQSGNSQESVTEQDSKDSTYSLSSTLTLSKADYEKHKVYACEVTHQGLSSPVTKSFNRGEC
notes: also called IG2 251
For B11, the “ratio to native IgG1” value in assay [1] is 0.92; in assay [2], 1.85; in assay [3], 1.67.
